This data set has as its target T1, H-NS (Escherichia coli, UniProt P0ACF8 1-137).
T1 sequence: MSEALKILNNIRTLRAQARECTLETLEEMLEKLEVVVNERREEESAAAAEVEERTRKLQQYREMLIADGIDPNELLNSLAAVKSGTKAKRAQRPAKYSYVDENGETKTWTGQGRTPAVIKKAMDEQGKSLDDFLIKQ
Description: EMSA; 0-80 ng/uL protein; 10 mM Mg2+; EMSA: 10 mM Tris-HCl pH 7.9, 125 mM KCl, 10 mM MgCl2, 0.1 mM DTT, 2.5% glycerol, 30 min, room temperature; bridging: 20 mM Tris-HCl pH 7.4, 150 mM NaCl, 1 mM DTT, 5% glycerol, 0.05% Tween 20, room temperature. The settings on record: protein: recombinant; tags: His6 (N-terminal); chain copies: 2; blunt. Background: Mobility shift assays separate free from complexed probe on a gel.

B1: HBS dsDNA probe (P21/P22) (dsDNA)
DNA 1: TAATTATTATAACTAAAAGTTTCTTTAATAATAAAACGAATAACTTGCAGATTTGAAAT
DNA 2: ATTTCAAATCTGCAAGTTATTCGTTTTATTATTAAAGAAACTTTTAGTTATAATAATTA
Consider B1, for which the binding result is reported as “binds”.

Source of the values: article PMC12455589, “Abundant bacterial nucleoid-associated protein H-NS limits plasmid transfer through mechanical modification of DNA”.
